# Source: article PMC12098869, “An mRNA-display derived cyclic peptide scaffold reveals the substrate binding interactions of an N-terminal cysteine oxidase” (Nature Communications, 2025)
# Values joined by “and” are separate entries in the source; they are usually repeats but may differ in a detail not shown here. Equal entries are not always repeated. Where two headings read alike, the source gives them in different places. Where a SMILES comes first, the peptide text is derived from it. Bridges are numbered along the chain shown (N, C = ends). Where no end group is shown, it is not given here. Side-chain parts run from the residue outwards. [ ]: non-standard residue; d: D form. Dap = NC[C@H](N)C(=O)O
# B1: Cyclic peptide CP6 (peptide)
# peptide: {CH2CO}-YIVKTFWLGSHRQC-NH2
# modifications: thioether N-14
# SMILES: CC[C@H](C)[C@@H]1NC(=O)[C@H](Cc2ccc(O)cc2)NC(=O)CSC[C@@H](C(N)=O)NC(=O)[C@H](CCC(N)=O)NC(=O)[C@H](CCCNC(=N)N)NC(=O)[C@H](Cc2c[nH]cn2)NC(=O)[C@H](CO)NC(=O)CNC(=O)[C@H](CC(C)C)NC(=O)[C@H](Cc2c[nH]c3ccccc23)NC(=O)[C@H](Cc2ccccc2)NC(=O)[C@H]([C@@H](C)O)NC(=O)[C@H](CCCCN)NC(=O)[C@H](C(C)C)NC1=O
# notes: selected by RaPID mRNA display against ADO; source: synthetic peptide (SPPS)
# B2: CP6-K4A (peptide)
# peptide: {CH2CO}-YIVATFWLGSHRQC
# modifications: thioether N-14
# notes: the substitution K4A is to be applied to them; Single amino acid substituent of CP6; source: synthetic peptide
# Key:
# human ADO [1] = molecular target: T1, human ADO (Homo sapiens, UniProt Q96SZ5); test: ADO activity inhibition assay (RGS5_2-15 oxidation monitored by LCMS): single-dose and IC50; format: biochemical
# T1 construct: Full-length human ADO (Uniprot ID: Q96SZ5) was cloned; made in house; host or cells: E. coli Rosetta2(DE3)
# T1 sequence (Q96SZ5 1-270): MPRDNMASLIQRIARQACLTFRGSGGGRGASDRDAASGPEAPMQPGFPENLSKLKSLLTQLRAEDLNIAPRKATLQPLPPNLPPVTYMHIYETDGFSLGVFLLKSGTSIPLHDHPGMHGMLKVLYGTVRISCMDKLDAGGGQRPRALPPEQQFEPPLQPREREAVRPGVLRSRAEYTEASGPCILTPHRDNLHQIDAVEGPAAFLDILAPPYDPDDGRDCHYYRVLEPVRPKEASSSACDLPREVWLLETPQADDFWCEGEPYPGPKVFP
# Experimental: We next tested the ability of the CPs to inhibit ADO activity. ADO activity was measured with and without 10 μM of each CP using an established stopped assay in which the oxidation of a representative substrate (RGS5_2-15; a synthetic peptide corresponding to the methionine excised N-terminus of RGS5, residues 2 to 15) was monitored by liquid chromatography coupled mass spectrometry (LCMS)[7],[35],[36].
# The enzymatic activity of ADO was examined by incubating between 0–1000 μM peptide substrates with 0.1 μM ADO in a bench-top thermomixer at 37 °C for 45 seconds. Otherwise stated, the reaction buffer contained 50 mM Tris pH 7.5, 50 mM NaCl, and 5 mM TCEP. The reactions were quenched by mixing the sample 1:10 with 1% formic acid (v/v).
# Peptide samples were injected onto a Chromolith® RP-18 Endcapped HPLC Columns (100–2 mm; Merck), heated to 40 °C and eluted at 0.3 ml/min using a gradient of 95% deionised water supplemented with 0.1% (v/v) formic acid to 95% acetonitrile. Oxidation was monitored by an ultra-high-performance liquid chromatography (UHPLC) mass spectrometry (MS) using ExionLC AD (Sciex) and SelexION (Sciex) mass spectrometer operated in a positive electrospray time-of-flight ( + ESI-TOF) mode. Instrument parameters, data acquisition and data processing were controlled by Analyst software (Sciex). The peptide data processing was performed using Skyline software. Turnover was quantified by comparing the areas underneath the product and substrate ions extracted from the total ion current chromatogram. All figures and parameters were generated using GraphPad Prism 9.
# human ADO [2] = molecular target: T1, human ADO; test: SPR single-cycle kinetic (SCK) binding of cyclic peptides to ADO; conditions: 1:1 binding model, 4 °C, geometric mean of a minimum of three independent measurements (n = 3) with standard error
# Excerpt: After six cycles, clear enrichment of several CPs was observed by next-generation sequencing. The most enriched CPs (CP1-8, numbered according to their percentage enrichment in the final selection round) were selected for subsequent analysis (Table 1). CP1, 5, 6 and 7 are related in sequence, while CP2, 3, 4, and 8 are unique compositions (Fig. 1b). These CPs were subsequently produced by solid-phase peptide synthesis (SPPS) and analysed by surface plasmon resonance (SPR) using single cycle kinetic (SCK) analysis to confirm and quantify binding to ADO. ADO could interact with each CP to varying degrees (Supplementary Fig. 4, Table 1, Fig. 1dleft).
# SPR measurements were made using a Biacore T200 (Cytiva) instrument and data were analysed using the Biacore Insight Evaluation Software. Biotinylated-ADO was immobilised on a Biotin CAP chip (Cytiva) with a target density of ∼2500–3000 RU and peptide/protein substrates were injected over the chip. Experiments were conducted at 4 °C using both multi-cycle (fit using the equilibrium steady state affinity 1:1 binding model) and single-cycle kinetics mode (fit using a 1:1 binding model). A buffer comprising 20 mM HEPES pH 7.5, 500 mM NaCl, 10 mM DTT, and 0.1% (v/v) tween-20 was used as the running buffer at a flow rate of 50 μL/minute.
# [3] = molecular target: ADO-D206N, biotinylated (pQE80L-Navi-ADO) (human) (UniProt Q96SZ5); test: SPR; single-cycle kinetics (SCK), 1:1 binding model; biotinylated ADO or variant immobilised on a Biotin CAP chip, peptide injected at 25.6, 64, 160, 400, 1000 nM; 4 °C; 20 mM HEPES pH 7.5, 500 mM NaCl, 10 mM DTT, 0.1% (v/v) tween-20; 50 μL/minute
# [4] = molecular target: 2-aminoethanethiol dioxygenase (ADO), wild type, biotinylated (pQE80L-Navi-ADO) (human); test: SPR; multi-cycle, equilibrium steady state affinity 1:1 binding model; biotinylated ADO or variant immobilised on a Biotin CAP chip (~2500-3000 RU), peptide injected; 4 °C; 20 mM HEPES pH 7.5, 500 mM NaCl, 10 mM DTT, 0.1% (v/v) tween-20; 50 μL/minute
# [5] = molecular target: T2, 2-aminoethanethiol dioxygenase (ADO), full-length human, N-terminally His-tagged and biotinylated … (human, UniProt Q96SZ5 1-270, biotin (biotinylated during expression, 0.2 mM biotin added)); test: SPR; single cycle kinetic (SCK) analysis, 1:1 binding model; biotinylated ADO immobilised on a Biotin CAP chip (~2500-3000 RU), cyclic peptides injected; 4 °C; 20 mM HEPES pH 7.5, 500 mM NaCl, 10 mM DTT, 0.1% tween-20; 50 μL/minute; conditions: both partners purified
# T2 construct: 2-aminoethanethiol dioxygenase (ADO), human, UniProt Q96SZ5, full length; Construct used for RaPID screening and all SPR experiments; No tag cleavage step is described in its purification; also called wild type ADO; biotinylated ADO; source: E. coli Rosetta2(DE3), purified (Ni-NTA, SEC); not shown: biotinylation tag (from the vector pQE80L-Navi), N-terminal, kept
# T2 sequence (looked up): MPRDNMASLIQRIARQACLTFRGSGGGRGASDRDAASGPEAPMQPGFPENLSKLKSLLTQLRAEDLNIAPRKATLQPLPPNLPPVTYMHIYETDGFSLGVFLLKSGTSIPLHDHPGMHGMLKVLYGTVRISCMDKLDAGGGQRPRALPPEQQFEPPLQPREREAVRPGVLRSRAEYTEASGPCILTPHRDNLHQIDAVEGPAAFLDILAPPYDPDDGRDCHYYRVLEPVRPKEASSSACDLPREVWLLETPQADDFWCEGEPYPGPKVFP
# [6] = molecular target: ADO with a change in Y212 (ADO-Y212) (human) (UniProt Q96SZ5); test: SPR; biotinylated ADO (wild type or mutant) immobilised on a Biotin CAP chip, substrate peptides injected; 4 °C; 20 mM HEPES pH 7.5, 500 mM NaCl, 10 mM DTT, 0.1% tween-20; multi-cycle or single-cycle mode not given
# [7] = molecular target: ADO with a change in F101 (ADO-F101) (human) (UniProt Q96SZ5); test: as above
# [8] = molecular target: T3, 2-aminoethanethiol dioxygenase (ADO), full-length human, N-terminally His-tagged and biotinylated … (human, UniProt Q96SZ5 1-270, biotin (biotinylated during expression, 0.2 mM biotin added)); test: SPR; single-cycle kinetics (1:1 binding model); biotinylated ADO immobilised on a Biotin CAP chip (~2500-3000 RU), cyclic peptide injected; Biacore T200, 4 °C; 20 mM HEPES pH 7.5, 500 mM NaCl, 10 mM DTT, 0.1% tween-20; 50 µL/minute; each cell is one of three independent measurements; conditions: both partners purified
# T3 construct: 2-aminoethanethiol dioxygenase (ADO), human, UniProt Q96SZ5, full length; Immobilised through its biotin on a Biotin CAP chip for SPR; also called wild type ADO; Biotinylated-ADO; source: E. coli Rosetta2(DE3), purified (Ni-NTA, SEC); not shown: biotinylation tag (from the vector pQE80L-Navi), N-terminal, kept
# T3 sequence (looked up): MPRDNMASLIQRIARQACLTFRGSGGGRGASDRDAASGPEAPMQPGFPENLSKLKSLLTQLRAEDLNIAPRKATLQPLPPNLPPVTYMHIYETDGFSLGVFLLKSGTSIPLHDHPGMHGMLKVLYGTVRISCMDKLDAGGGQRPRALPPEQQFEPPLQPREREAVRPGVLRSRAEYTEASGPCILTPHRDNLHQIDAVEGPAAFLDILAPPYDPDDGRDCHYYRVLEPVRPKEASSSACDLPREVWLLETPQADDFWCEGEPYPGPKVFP
# [9] = molecular target: T3, 2-aminoethanethiol dioxygenase (ADO), …; test: SPR; single-cycle kinetics (1:1 binding model); biotinylated ADO immobilised on a Biotin CAP chip (~2500-3000 RU), cyclic peptide injected; Biacore T200, 4 °C; 20 mM HEPES pH 7.5, 500 mM NaCl, 10 mM DTT, 0.1% tween-20; 50 µL/minute; each cell is one of three independent measurements; conditions: both partners purified; remark: listed apart in the source
# Summary of the method: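 Cyclic peptides were run over biotinylated, His-tagged full-length human ADO that had been expressed in E. coli, purified by nickel affinity and gel filtration, and captured on a Biotin CAP chip (about 2500–3000 RU) in a Biacore T200. Flow was 50 µL/minute at 4 °C in HEPES pH 7.5 buffer with 500 mM NaCl, DTT and tween-20. Kd values come from 1:1 fits of single-cycle kinetic sensorgrams across three independent measurements.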
# [10] = RGS5_2-15 substrate, LCMS, 37 °C, average of three independent experiments (n = 3), standard error, read-out: IC50
molecule,measurement,setting,value
CC(C)C[C@@H]1NC(=O)[C@H](Cc2ccc(O)cc2)NC(=O)[C@H](CC(C)C)NC(=O)[C@H]([C@@H](C)O)NC(=O)[C@H](C(C)C)NC(=O)[C@H](CC(C)C)NC(=O)[C@H](CC(C)C)NC(=O)[C@H](Cc2ccc(O)cc2)NC(=O)CSC[C@@H](C(N)=O)NC(=O)[C@H](CO)NC(=O)[C@H](CCCNC(=N)N)NC(=O)[C@H](Cc2c[nH]cn2)NC(=O)[C@H]([C@@H](C)O)NC(=O)CNC1=O [CP7] ({CH2CO}-YLLVTLYLGTHRSC-NH2; thioether N-14),IC50,human ADO [1]; [10],9920 ± 290 nM
same,KD,human ADO [2],non-specific binding
CC[C@H](C)[C@@H]1NC(=O)[C@H]([C@@H](C)O)NC(=O)CNC(=O)[C@H](CC(C)C)NC(=O)[C@H](C(C)C)NC(=O)[C@H](Cc2ccc(O)cc2)NC(=O)[C@H](Cc2ccc(O)cc2)NC(=O)[C@H](Cc2ccc(O)cc2)NC(=O)CSC[C@@H](C(N)=O)NC(=O)[C@H](Cc2ccccc2)NC(=O)[C@H](CCCNC(=N)N)NC(=O)[C@H](Cc2ccc(O)cc2)NC(=O)[C@H](CCCNC(=N)N)NC(=O)[C@H](CCCCN)NC(=O)[C@H](C(C)C)NC(=O)[C@H](CC(C)C)NC1=O [CP4] ({CH2CO}-YYYVLGTILVKRYRFC-NH2; thioether N-16),IC50,human ADO [1]; [10],> 50000 nM
same,Kd,human ADO [2],1300 ± 140 nM
"IL32_(2-15), synthetic peptide corresponding to the methionine excised N-terminus of IL32, residues 2-15 (from UniProt P24001 2-15)",Kd,[3],70 nM
same,Kd,[4],460 nM
CC[C@H](C)[C@@H]1NC(=O)[C@H](Cc2ccc(O)cc2)NC(=O)CSC[C@@H](C(N)=O)NC(=O)[C@H](CCC(N)=O)NC(=O)[C@H](CCCNC(=N)N)NC(=O)[C@H](Cc2c[nH]cn2)NC(=O)[C@H](CO)NC(=O)CNC(=O)[C@H](CC(C)C)NC(=O)[C@H](Cc2c[nH]c3ccccc23)NC(=O)[C@H](CO)NC(=O)[C@H]([C@@H](C)O)NC(=O)[C@H](CCCCN)NC(=O)[C@H](C(C)C)NC1=O [CP6-F6S] ({CH2CO}-YIVKTSWLGSHRQC-NH2; thioether N-14),IC50,"human ADO [1]; as given in the legend of Fig. 2c (concentration of CP added), read-out: half-maximal inhibitory concentration (IC50)",200 nM
"RGS5_(2-15), synthetic peptide corresponding to the methionine excised N-terminus of RGS5, residues 2 to 15 (from UniProt O15539 2-15)",Kd,[3],150 nM
same,Kd,[4],640 nM
{CH2CO}-YIVKTFW[Dap]([Phe-Ser])GSHRQC (thioether N-14) [CP6-L8d-Phe-Ser],Kd,[5],79 nM
CFPKVLSDDMKKLK,fold increase in KD relative to wild type ADO,[6],< 113 fold
same,fold increase in KD relative to wild type ADO,[7],< 80 fold
B1,Kd,[8],28.9 nM and 28.6 nM and 31.2 nM
same,Kd,[9],50.9 nM and 50.4 nM and 50.6 nM
B2,Kd,[8],429 nM and 397 nM and 428 nM
{CH2CO}-YIVKTFW[Dap]([Lys-Ser])GSHRQC (thioether N-14) [CP6-L8d-Lys-Ser],Kd,[5],490 nM
CKGLAALPHSCLER,fold increase in KD relative to wild type ADO,[6],< 113 fold
same,fold increase in KD relative to wild type ADO,[7],< 80 fold
{CH2CO}-YIVKTFW[Dap]([Gly-Ser])GSHRQC (thioether N-14) [CP6-L8d-Gly-Ser],Kd,[5],150 nM
